Test results published in article PMC11880201 (Nature Communications, 2025).

Target: TEAD (residue 28-104) of TEAD1 (UniProt P28347 28-104)
Test: fluorescence polarisation

Sequence of TEAD (residue 28-104) of TEAD1 (P28347 28-104): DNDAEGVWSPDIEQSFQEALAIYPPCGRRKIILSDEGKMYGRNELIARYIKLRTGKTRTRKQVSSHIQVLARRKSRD

Kd: 0.0395 µM
B1: FITC-labeled INSM1 ZF1 (domain or fragment)
chain: not shown
modifications: FITC label (FITC rapid labeling kit), site not stated
